Sequences and labels used below:
B1: Caulobacter crescentus polynucleotide phosphorylase (enzyme, UniProt B8GWZ0 1-712, looked up)
chain: MFDIKRKTIEWGGKTLVLETGRIARQADGAVLATMGETVVLATAVFAKSQKPGQDFFPLTVNYQEKTFAAGKIPGGFFKREGRPSEKETLVSRLIDRPIRPLFVKGFKNEVQVVVTVLQHDLENDPDILGMVAASAALCLSGAPFMGPIGAARVGWVDGAYVLNPTLDEMKESKMDLVVAGTADAVMMVESEIQELSEEIVLGGVNFAHQQMQAVIDAIIDLAEHAAKEPFAFEPEDTDAIKAKMKDLVGADIAAAYKIQKKQDRYEAVGAAKKKAIAALGLSDENPTGYDPLKLGAIFKELEADVVRRGILDTGLRIDGRDVKTVRPILGEVGILPRTHGSALFTRGETQAIVVATLGTGDDEQFIDALEGTYKESFLLHYNFPPYSVGETGRMGSPGRREIGHGKLAWRALRPMLPTKEDFPYTIRLVSEITESNGSSSMATVCGSSLAMMDAGVPLVRPVSGIAMGLILEQDGFAVLSDILGDEDHLGDMDFKVAGTSEGLTSLQMDIKIAGITPAIMEQALAQAKEGRAHILGEMNKAMDAPRADVGDFAPKIETINIPTDKIREVIGSGGKVIREIVATTGAKVDINDDGVVKVSASDGAKIKAAIDWIKSITDEAEVGKIYDGKVVKVVDFGAFVNFFGAKDGLVHVSQISNERVAKPSDVLKEGQMVKVKLLGFDDRGKTKLSMKVVDQETGEDLSKKEAAAEEA
notes: polynucleotide phosphorylase, pnp gene (CC0034), amplified from genomic DNA of C. crescentus strain NA1000 with primers from the start codon to the stop codon; Two alternative constructs were made (GST-PNPase from pGEX-6p-1, GST cut off with PreScission protease; 6xHis-PNPase from pET-DUET); the two tags are not on one chain; also called PNPase; C. crescentus PNPase; source: E. coli, purified …
B2: GST fused to the PNPase recognition peptide of RNase E (TAPPEKPRRGWWRR) (peptide)
chain: TAPPEKPRRGWWRR
notes: C-terminal PNPase recognition peptide of C. crescentus RNase E, encoded by the 3' end of the rne gene (cc1877); Cloned in pGEX-6p-1 through BamHI and XhoI; also called GST–GWW; GST–GWW peptide; source: E. coli, purified (glutathione sepharose); not shown: GST, N-terminal, kept
B3: C. crescentus PNPase recognition peptide from RNase E (EKPRRGWWRR) (peptide)
peptide: EKPRRGWWRR
notes: last 10 amino acids of C. crescentus RNase E; also called GWW peptide; RNase E recognition peptide; source: synthetic peptide (Cambridge Research Biochemicals)

Series [1] concerns the molecule itself. Briefly: crystal structure; apo-PNPase co-crystallised with the peptide at 2 : 1 molar excess; rhombohedral (R3) and hexagonal (P6_(3)) forms, sitting drop, 18°C.
Series [2] has as its target B1. The series is described as follows: native gel or EMSA; approximate fourfold molar excess of GST-peptide mixed with PNPase, 20 mM Tris–HCl pH 7.5, 200 mM NaCl, room temperature 10 min, 8 per cent non-denaturing PAGE. The conditions noted are these: both partners purified.
Series [3] has as its target T1, PNPase (polynucleotide phosphorylase) (Caulobacter crescentus, UniProt Q9AC32 1-712).
T1 sequence: B1 chain
The series is described as follows: X-ray crystallography; co-crystallized with apo-PNPase; same cell and space group (P22121) as endogenous RNA complex; Crystals of RNA-bound PNPase: 24% w/v PEG 3350, 0.1 M bis-Tris pH 5.5, 0.1 M ammonium acetate, 18 C. The following applies: protein: recombinant; tags: 6xHis N-terminal (pET-DUET) or N-terminal GST (pGEX-6p-1) removed with PreScission; chain copies: 3.

Series [4] deals with B1. The series is described as follows: crystal structure; apo-PNPase co-crystallised with the peptide at 2 : 1 molar excess; rhombohedral (R3) and hexagonal (P6_(3)) forms, sitting drop, 18°C. The following applies: both partners purified.

The record followed here is PMC3376730, “Crystal structure of Caulobacter crescentus polynucleotide phosphorylase reveals a mechanism of RNA substrate channelling and RNA degradosome assembly” (Open Biology, 2012).

A word on the stoichiometry N: it is a count of units in the complex or per binding partner.

Turning to B1, the “stoichiometry N” value in series [1] turned out to be 3.
On to B2, for which, in series [2], the binding result was “binds”.
With GUUUAUUGCCGUUCUUGUUAUAUGCCUU (ssRNA) [27mer MicC portion RNA], in series [3], the binding result is reported as “binds”.
Turning to B3, in series [4], the binding result is reported as “binds”.
